In paper doi:10.1101/2023.01.06.522972 (2023):

Target: Leishmania major actin (Leishmania major, UniProt P45520 2-376)
Assay: ITC; ATP-actin

Sequence of Leishmania major actin (P45520 2-376): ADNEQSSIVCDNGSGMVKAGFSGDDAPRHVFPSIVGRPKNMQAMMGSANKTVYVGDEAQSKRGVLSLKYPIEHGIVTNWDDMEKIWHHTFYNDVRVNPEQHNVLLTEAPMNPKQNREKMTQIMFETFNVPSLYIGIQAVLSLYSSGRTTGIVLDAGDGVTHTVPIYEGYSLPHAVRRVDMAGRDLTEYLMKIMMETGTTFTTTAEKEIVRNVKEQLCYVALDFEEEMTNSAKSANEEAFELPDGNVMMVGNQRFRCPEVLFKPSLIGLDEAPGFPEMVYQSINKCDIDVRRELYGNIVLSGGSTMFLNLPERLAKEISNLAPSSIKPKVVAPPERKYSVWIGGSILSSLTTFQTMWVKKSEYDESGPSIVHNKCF

B1: Leishmania major profilin, wild type (natural protein)
chain: SWQAYVDDSLIGSGNMHSAAIIGAADGSYWAYGGSYVPQPEEVQHIQKCLSDFSFVQSSGVNIYGVKFFGLQCGTDGDCKYIFFKKGAAGGCIYTTKQAFIVAVYGNPGDTSSLQQDLEKNTAHAVTVNPADCNTTVKRIADYLIKLGY
Kd: 71.8 nM
